Test results as given in the Human Domainome abundance scans (Beltran et al. 2025).
± gives the uncertainty stated by the source.

Assay: abundance fitness (aPCA) (normalised: wild type 0, dead -1); higher = more abundant; growth selection in yeast, the domain comes from the species named
Conditions: Homo sapiens

In order of falling abundance fitness:
1. Scaffold attachment factor B1 E66Q, Q15424  -0.014 ± 0.078
2. Scaffold attachment factor B1 E74S, Q15424  -0.053 ± 0.053
3. Scaffold attachment factor B1 E76P, Q15424  -0.069 ± 0.083
4. Scaffold attachment factor B1 E59I, Q15424  -0.071 ± 0.067
5. Scaffold attachment factor B1 E74A, Q15424  -0.071 ± 0.067
6. Scaffold attachment factor B1 D73E, Q15424  -0.072 ± 0.067
7. Scaffold attachment factor B1 E74R, Q15424  -0.074 ± 0.051
8. Scaffold attachment factor B1 E59R, Q15424  -0.078 ± 0.074
9. Scaffold attachment factor B1 E59T, Q15424  -0.082 ± 0.053
10. Scaffold attachment factor B1 E59H, Q15424  -0.087 ± 0.063
11. Scaffold attachment factor B1 D73N, Q15424  -0.091 ± 0.097
12. Scaffold attachment factor B1 E76G, Q15424  -0.096 ± 0.053
13. Scaffold attachment factor B1 E66T, Q15424  -0.11 ± 0.076
14. Scaffold attachment factor B1 E59S, Q15424  -0.111 ± 0.051
15. Scaffold attachment factor B1 E76C, Q15424  -0.113 ± 0.054
16. Scaffold attachment factor B1 E74M, Q15424  -0.119 ± 0.068
17. Scaffold attachment factor B1 D73G, Q15424  -0.124 ± 0.049
18. Scaffold attachment factor B1 E59V, Q15424  -0.125 ± 0.046
19. Scaffold attachment factor B1 E74L, Q15424  -0.125 ± 0.053
20. Scaffold attachment factor B1 E59M, Q15424  -0.131 ± 0.064
21. Scaffold attachment factor B1 E59N, Q15424  -0.131 ± 0.065
22. Scaffold attachment factor B1 E66L, Q15424  -0.133 ± 0.051
23. Scaffold attachment factor B1 E74W, Q15424  -0.135 ± 0.055
24. Scaffold attachment factor B1 E66M, Q15424  -0.137 ± 0.046
25. Scaffold attachment factor B1 E42M, Q15424  -0.15 ± 0.074
26. Scaffold attachment factor B1 E59D, Q15424  -0.15 ± 0.074
27. Scaffold attachment factor B1 E59L, Q15424  -0.15 ± 0.052
28. Scaffold attachment factor B1 E59K, Q15424  -0.152 ± 0.084
29. Scaffold attachment factor B1 E59G, Q15424  -0.153 ± 0.076
30. Scaffold attachment factor B1 E74V, Q15424  -0.157 ± 0.055
31. Scaffold attachment factor B1 E76A, Q15424  -0.161 ± 0.064
32. Scaffold attachment factor B1 E66S, Q15424  -0.164 ± 0.056
33. Scaffold attachment factor B1 E66K, Q15424  -0.169 ± 0.082
34. Scaffold attachment factor B1 E76N, Q15424  -0.169 ± 0.067
35. Scaffold attachment factor B1 E74F, Q15424  -0.175 ± 0.069
36. Scaffold attachment factor B1 E74C, Q15424  -0.18 ± 0.073
37. Scaffold attachment factor B1 E74T, Q15424  -0.183 ± 0.083
38. Scaffold attachment factor B1 E42L, Q15424  -0.188 ± 0.061
39. Scaffold attachment factor B1 E59Q, Q15424  -0.19 ± 0.096
40. Scaffold attachment factor B1 E76L, Q15424  -0.199 ± 0.062
41. Scaffold attachment factor B1 E76M, Q15424  -0.2 ± 0.086
42. Scaffold attachment factor B1 E66N, Q15424  -0.202 ± 0.075
43. Scaffold attachment factor B1 E66R, Q15424  -0.202 ± 0.047
44. Scaffold attachment factor B1 E74G, Q15424  -0.202 ± 0.063
45. Scaffold attachment factor B1 D73C, Q15424  -0.206 ± 0.059
46. Scaffold attachment factor B1 E74K, Q15424  -0.213 ± 0.089
47. Scaffold attachment factor B1 E74I, Q15424  -0.215 ± 0.086
48. Scaffold attachment factor B1 E66G, Q15424  -0.218 ± 0.052
49. Scaffold attachment factor B1 E68D, Q15424  -0.224 ± 0.073
50. Scaffold attachment factor B1 E74Y, Q15424  -0.226 ± 0.09
51. Scaffold attachment factor B1 D73V, Q15424  -0.23 ± 0.053
52. Scaffold attachment factor B1 D73T, Q15424  -0.231 ± 0.056
53. Scaffold attachment factor B1 E68A, Q15424  -0.233 ± 0.05
54. Scaffold attachment factor B1 E68S, Q15424  -0.236 ± 0.052
55. Scaffold attachment factor B1 D73S, Q15424  -0.243 ± 0.061
56. Scaffold attachment factor B1 E66V, Q15424  -0.244 ± 0.05
57. Scaffold attachment factor B1 D73L, Q15424  -0.245 ± 0.059
58. Scaffold attachment factor B1 E66F, Q15424  -0.256 ± 0.061
59. Scaffold attachment factor B1 E42Q, Q15424  -0.26 ± 0.083
60. Scaffold attachment factor B1 E66I, Q15424  -0.261 ± 0.058
61. Scaffold attachment factor B1 E68V, Q15424  -0.265 ± 0.053
62. Scaffold attachment factor B1 D73P, Q15424  -0.278 ± 0.068
63. Scaffold attachment factor B1 E68Q, Q15424  -0.279 ± 0.049
64. Scaffold attachment factor B1 E66C, Q15424  -0.284 ± 0.069
65. Scaffold attachment factor B1 D73R, Q15424  -0.288 ± 0.056
66. Scaffold attachment factor B1 E66Y, Q15424  -0.288 ± 0.075
67. Scaffold attachment factor B1 E68G, Q15424  -0.289 ± 0.045
68. Scaffold attachment factor B1 E76I, Q15424  -0.291 ± 0.093
69. Scaffold attachment factor B1 E76K, Q15424  -0.294 ± 0.096
70. Scaffold attachment factor B1 E74P, Q15424  -0.309 ± 0.063
71. Scaffold attachment factor B1 E74D, Q15424  -0.312 ± 0.074
72. Scaffold attachment factor B1 E68T, Q15424  -0.314 ± 0.054
73. Scaffold attachment factor B1 E74Q, Q15424  -0.32 ± 0.088
74. Scaffold attachment factor B1 E68R, Q15424  -0.341 ± 0.051
75. Scaffold attachment factor B1 E59Y, Q15424  -0.343 ± 0.095
76. Scaffold attachment factor B1 E42C, Q15424  -0.346 ± 0.063
77. Scaffold attachment factor B1 E68N, Q15424  -0.346 ± 0.056
78. Scaffold attachment factor B1 E68K, Q15424  -0.352 ± 0.07
79. Scaffold attachment factor B1 E68H, Q15424  -0.359 ± 0.057
80. Scaffold attachment factor B1 D73Q, Q15424  -0.362 ± 0.11
81. Scaffold attachment factor B1 E74N, Q15424  -0.366 ± 0.09
82. Scaffold attachment factor B1 D73Y, Q15424  -0.375 ± 0.073
83. Scaffold attachment factor B1 E59W, Q15424  -0.408 ± 0.11
84. Scaffold attachment factor B1 E42I, Q15424  -0.422 ± 0.057
85. Scaffold attachment factor B1 E66W, Q15424  -0.43 ± 0.059
86. Scaffold attachment factor B1 D73H, Q15424  -0.443 ± 0.098
87. Scaffold attachment factor B1 E68M, Q15424  -0.461 ± 0.054
88. Scaffold attachment factor B1 D73M, Q15424  -0.468 ± 0.1
89. Scaffold attachment factor B1 E68I, Q15424  -0.469 ± 0.05
90. Scaffold attachment factor B1 E66H, Q15424  -0.49 ± 0.075
91. Scaffold attachment factor B1 D73F, Q15424  -0.494 ± 0.085
92. Scaffold attachment factor B1 D73W, Q15424  -0.513 ± 0.056
93. Scaffold attachment factor B1 E42V, Q15424  -0.53 ± 0.053
94. Scaffold attachment factor B1 E68C, Q15424  -0.586 ± 0.056
95. Scaffold attachment factor B1 E42F, Q15424  -0.587 ± 0.076
96. Scaffold attachment factor B1 E42S, Q15424  -0.605 ± 0.056
97. Scaffold attachment factor B1 E74H, Q15424  -0.608 ± 0.12
98. Scaffold attachment factor B1 E42Y, Q15424  -0.619 ± 0.1
99. Scaffold attachment factor B1 E59F, Q15424  -0.637 ± 0.071
100. Scaffold attachment factor B1 D73K, Q15424  -0.652 ± 0.12
101. Scaffold attachment factor B1 E42H, Q15424  -0.686 ± 0.12
102. Scaffold attachment factor B1 E42N, Q15424  -0.736 ± 0.11
103. Scaffold attachment factor B1 E42T, Q15424  -0.776 ± 0.076
104. Scaffold attachment factor B1 E68P, Q15424  -0.802 ± 0.051
105. Scaffold attachment factor B1 E68W, Q15424  -0.836 ± 0.07
106. Scaffold attachment factor B1 E42K, Q15424  -0.852 ± 0.1
107. Scaffold attachment factor B1 E42D, Q15424  -0.881 ± 0.099
108. Scaffold attachment factor B1 E42R, Q15424  -0.903 ± 0.053
109. Scaffold attachment factor B1 E66P, Q15424  -0.909 ± 0.097
110. Scaffold attachment factor B1 E42P, Q15424  -0.976 ± 0.18
